Measured values taken from patent US20090155236A1, “Peptide sequence for modulation of delta protein kinase c” (NATIONAL INSTITUES OF HEALTH (NIH), U.S. DEPT OF HEALTH AND …, priority 2004, published 2009).

What was measured:
[1] = target: recombinant full-length delta PKC (rat); assay: ELISA, presence of calcium
[2] = target: recombinant full-length delta PKC (rat); assay: ELISA, absence of calcium
[3] = target: annexin V protein (human) (UniProt P08758); assay: ELISA, annexin V immobilised, presence of calcium
[4] = target: annexin V protein (human) (UniProt P08758); assay: ELISA, annexin V immobilised, absence of calcium

Chain of annexin V protein (human) (P08758 2-320 limits assumed): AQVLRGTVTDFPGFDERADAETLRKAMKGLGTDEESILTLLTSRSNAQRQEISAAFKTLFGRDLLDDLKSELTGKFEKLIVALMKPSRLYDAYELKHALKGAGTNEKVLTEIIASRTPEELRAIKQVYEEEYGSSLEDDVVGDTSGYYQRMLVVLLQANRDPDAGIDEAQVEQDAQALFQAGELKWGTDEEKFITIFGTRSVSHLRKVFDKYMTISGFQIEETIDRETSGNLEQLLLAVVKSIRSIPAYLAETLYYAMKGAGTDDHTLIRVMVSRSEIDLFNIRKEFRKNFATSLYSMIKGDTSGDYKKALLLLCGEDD

Row | percent binding [1] [%] | percent binding [2] [%] | percent binding [3] [%] | percent binding [4] [%] | Substance
1 | 100 | 75 |  |  | annexin V protein (from UniProt P08758 2-320)
2 |  |  | 100 | 55 | delta V1 PKC (from UniProt P09215 1-160)
